{"source": "patent CN116745314A", "target": "spike glycoprotein of live SARS-CoV-2 (isolate USA-WA1/2020) (SARS-CoV-2) (UniProt P0DTC2)", "assay": "cell-based or functional assay", "data": [{"substance": "S2D106-LS (antibody)", "values": [{"measurement": "EC50 (live SARS-CoV-2-luc neutralisation, MOI 0.1, 6 h)", "value": 6, "unit": "ng/mL"}, {"measurement": "EC90 (live SARS-CoV-2-luc neutralisation, MOI 0.1, 6 h)", "value": 22, "unit": "ng/mL"}, {"measurement": "IC50 (live SARS-CoV-2-luc neutralisation, MOI 0.1, 6 h)", "value": 4.49, "unit": "ng/mL"}]}]}
